Measured values as given in the Immune Epitope Database (IEDB).
pIC50, pKd: −log10 of the molar value.

Assays:
[1] = target: HLA-B*15:01; experiment: IEDB peptide-MHC binding, purified MHC/competitive/radioactivity; filed as Kd, often an IC50 or EC50 that approximates it; ≥ and ≤ were set here for values at or beyond the usual limits of such assays
[2] = target: HLA-B*53:01; experiment: as above
[3] = target: HLA-A*30:02; experiment: as above
[4] = target: HLA-B*08:01; experiment: IEDB peptide-MHC binding, purified MHC/direct/fluorescence; filed as Kd, often an IC50 or EC50 that approximates it; ≥ and ≤ were set here for values at or beyond the usual limits of such assays
[5] = target: HLA-A*02:01; experiment: IEDB peptide-MHC binding, purified MHC/competitive/fluorescence; ≥ and ≤ were set here for values at or beyond the usual limits of such assays
[6] = target: HLA-A*24:02; experiment: as above
[7] = target: HLA-A*24:03; experiment: IEDB peptide-MHC binding, purified MHC/direct/fluorescence; filed as Kd, often an IC50 or EC50 that approximates it; ≥ and ≤ were set here for values at or beyond the usual limits of such assays; settings: source organism: Burkholderia mallei
[8] = target: HLA-B*07:02; experiment: as above
[9] = target: HLA-B*51:01; experiment: IEDB peptide-MHC binding, purified MHC/competitive/fluorescence; filed as Kd, often an IC50 or EC50 that approximates it; ≥ and ≤ were set here for values at or beyond the usual limits of such assays; settings: source organism: Kurkino virus
[10] = target: HLA-B*44:02; experiment: IEDB peptide-MHC binding, purified MHC/direct/fluorescence; filed as Kd, often an IC50 or EC50 that approximates it; ≥ and ≤ were set here for values at or beyond the usual limits of such assays
[11] = target: HLA-B*27:05; experiment: as above
[12] = target: HLA-A*03:01; experiment: as above
[13] = target: HLA-A*69:01; experiment: as above
[14] = target: HLA-A*26:01; experiment: as above
[15] = target: HLA-A*31:01; experiment: as above
[16] = target: HLA-A*01:01; experiment: as above
[17] = target: HLA-A*02:01; experiment: as above
[18] = target: HLA-B*58:01; experiment: as above
[19] = target: HLA-B*15:01; experiment: as above
[20] = target: HLA-A*11:01; experiment: as above
[21] = target: HLA-B*40:01; experiment: as above
[22] = target: HLA-B*51:01; experiment: IEDB peptide-MHC binding, purified MHC/competitive/radioactivity; filed as Kd, often an IC50 or EC50 that approximates it; ≥ and ≤ were set here for values at or beyond the usual limits of such assays; settings: source organism: Dengue virus 4 Philippines/H241/1956
[23] = target: HLA-B*18:01; experiment: IEDB peptide-MHC binding, purified MHC/direct/fluorescence; filed as Kd, often an IC50 or EC50 that approximates it; ≥ and ≤ were set here for values at or beyond the usual limits of such assays; settings: source organism: Giardia lamblia ATCC 50803
[24] = target: HLA-A*03:01; experiment: IEDB peptide-MHC binding, purified MHC/competitive/radioactivity; filed as Kd, often an IC50 or EC50 that approximates it; ≥ and ≤ were set here for values at or beyond the usual limits of such assays; settings: source organism: Dengue virus 4 Philippines/H241/1956
[25] = target: HLA-A*30:01; experiment: as above; settings: source organism: Dengue virus 4 Philippines/H241/1956
[26] = target: HLA-A*26:01; experiment: as above; settings: source organism: Dengue virus 3 Sri Lanka/1266/2000
[27] = target: HLA-A*01:01; experiment: as above; settings: source organism: Dengue virus 3 Sri Lanka/1266/2000
[28] = source organism: Dengue virus 2 Jamaica/1409/1983
[29] = source organism: Vaccinia virus WR
[30] = source organism: Dengue virus 2 Peru/IQT2913/1996
[31] = source organism: Dengue virus 3 Martinique/1243/1999
[32] = source organism: Dengue virus 4 Philippines/H241/1956
[33] = source organism: Zaire ebolavirus
[34] = source organism: Sudan ebolavirus
[35] = source organism: Vibrio parahaemolyticus
[36] = source organism: Salmonella enterica subsp. enterica serovar Typhi
[37] = source organism: Dengue virus 3 Sri Lanka/1266/2000

Sequence: TLITGNMSF
- pKd [1, 28]: 7.04

Sequence: PPVSDLKYSW
- pKd ([2]; source organism: Dengue virus 4 Dominica/814669/1981): 5.80

Sequence: YMATTILEM
- pKd [1, 29]: 8.66

Sequence: RIKQKGILGY
- pKd [3, 30]: 5.84
- pKd [1, 30]: 6.82

Sequence: HPGFTILALF
- pKd [2, 31]: 8.98

Sequence: MSRRRIYVL
- pKd ([4]; source organism: Cowpox virus): 8.22

Sequence: CPNERRAWNF
- pKd [2, 32]: 7.15

Sequence: SQHNYRQGY
- pKd [3, 32]: 7.63
- pKd [1, 32]: 8.46

Sequence: GGILPWTKI
- pIC50 [5, 29]: ≤ 3.90
- pIC50 [6, 29]: ≤ 4.11

Sequence: RYPAIAGGI
- pKd [7]: 8.48

Sequence: DPSSGYYST
- pIC50 [6, 33]: ≤ 3.82

Sequence: LPTRCRLEI
- pKd ([8]; source organism: Orthohantavirus dobravaense): 8.41
- pKd [9]: ≤ 4.70

Sequence: KSSFFVWVI
- pIC50 [5, 34]: 6.56
- pIC50 [6, 34]: 7.16

Sequence: EIPGSPGSY
- pKd [10, 35]: ≤ 4.70
- pKd [11, 35]: ≤ 4.70
- pKd [12, 35]: ≤ 4.70
- pKd [13, 35]: ≤ 4.70
- pKd [14, 35]: 6.98
- pKd [15, 35]: ≤ 4.70
- pKd [16, 35]: ≤ 4.70
- pKd [17, 35]: ≤ 4.70
- pKd [8, 35]: ≤ 4.70
- pKd [4, 35]: ≤ 4.70
- pKd [18, 35]: ≤ 4.70
- pKd [19, 35]: ≤ 4.70
- pKd [20, 35]: ≤ 4.70
- pKd [21, 35]: ≤ 4.70

Sequence: RWGGTCHIL
- pIC50 [6, 33]: 7.25

Sequence: KGRVGRVNP
- pIC50 ([6]; source organism: Variola virus): 5.01

Sequence: MLNTYGEGF
- pKd [1, 29]: 8.65

Sequence: LPTYLSSRA
- pKd [22]: ≤ 4.63

Sequence: TYVQLESRF
- pIC50 [6, 33]: 4.25

Sequence: WEPPERHIL
- pKd [23]: ≥ 9.00
- pKd ([21]; source organism: Giardia lamblia ATCC 50803): ≤ 4.70

Sequence: LMTGTLAVF
- pKd ([1]; source organism: Dengue virus 1 Brazil/97-11/1997): 9.40

Sequence: KLRIKGMSY
- pKd [24]: 8.08
- pKd [3, 32]: 7.10
- pKd [25]: 7.73
- pKd [1, 32]: 7.41

Sequence: NPTVDGIMTI
- pKd [2, 31]: 6.67

Sequence: QHSTTLFKI
- pIC50 [5, 34]: ≤ 4.10
- pIC50 [6, 34]: 5.67

Sequence: NPTAIFLTT
- pKd [2, 28]: 5.77

Sequence: REILFHNTM
- pKd [10, 36]: ≤ 4.70
- pKd [11, 36]: ≤ 4.70
- pKd [12, 36]: ≤ 4.70
- pKd [13, 36]: ≤ 4.70
- pKd [14, 36]: ≤ 4.70
- pKd [15, 36]: ≤ 4.70
- pKd [16, 36]: ≤ 4.70
- pKd [17, 36]: ≤ 4.70
- pKd [8, 36]: ≤ 4.70
- pKd [4, 36]: 5.88
- pKd [18, 36]: ≤ 4.70
- pKd [19, 36]: 6.74
- pKd [20, 36]: ≤ 4.70
- pKd [21, 36]: 8.25

Sequence: CLHHAYQGD
- pIC50 [5, 33]: ≤ 3.92
- pIC50 [6, 33]: ≤ 4.04

Sequence: LLIVSGIFPY
- pKd [26]: 4.95
- pKd [3, 37]: ≤ 4.22
- pKd [27]: 5.12
- pKd [1, 37]: 8.65

Sequence: PYFGPGAEG
- pIC50 [6, 34]: ≤ 3.94
